Measurements published in patent publication US20250152746A1, “BASE EDITING OF ANGPTL3 AND METHODS OF USING SAME FOR TREATMENT OF DISEASE” (Verve Therapeutics, Inc., priority 2020, published 2025).
Changes are numbered by the printed parent chain. Read-outs that look alike come from different tables or passages of the source. In the oligonucleotide strings, read from the 5' end, every base follows the letter of its sugar. An asterisk marks phosphorothioate; unmarked linkages are phosphodiester. Other units and linkages are bracketed, terminal groups are in braces. A string of capitals states the bases alone. m = 2'-O-methyl; r = 2'-OH (RNA)

B1: GA089: PCSK9 gRNA for ABE8.8 splice site editing, Human/Cyno (nucleic acid)
guide: CCCCAGGCTGCAGCTCCCACGTTTTAGAGCTAGAAATAGCAAGTTAAAATAAGGCTAGTCCGTTATCAACTTGAAAAAGTGGCACCGAGTCGGTGCTTTT
modifications: 2'-O-methyl at 1, 2, other sugars and backbone not given here; further chemistry not fully specified
notes: PCSK9 gRNA for ABE8.8 splice site editing, Human/Cyno
B2: GA084: PCSK9 gRNA for ABE8.8 splice site editing, Human/Cyno (nucleic acid)
guide: CCTCTTCACCTGCTCCTGAGGTTTTAGAGCTAGAAATAGCAAGTTAAAATAAGGCTAGTCCGTTATCAACTTGAAAAAGTGGCACCGAGTCGGTGCTTTT
modifications: 2'-O-methyl at 1, 2, other sugars and backbone not given here; further chemistry not fully specified
notes: as for B1
B3: GA090: PCSK9 gRNA for ABE8.8 splice site editing, Human/Cyno (nucleic acid)
guide: B2 guide with C1G, T3A, C4G, T5G, C7G, T11G, G12T, C13G, T14G, A19C
modifications: listed as RNA; modified_base 1: mod_base = OTHER; note = 2'-O-Methyl-guanosine phosphorothioate; modified_base 2: mod_base = OTHER; note = 2'-O-Methyl-cytidine phosphorothioate; modified_b
notes: as for B1
B4: GA078: PCSK9 gRNA for ABE8.8 splice site editing, Human/Cyno (nucleic acid)
guide: AGCACCTACCTCGGGAGCTGGTTTTAGAGCTAGAAATAGCAAGTTAAAATAAGGCTAGTCCGTTATCAACTTGAAAAAGTGGCACCGAGTCGGTGCTTTT
modifications: listed as RNA; note = Description of Combined DNA/RNA Molecule: Synthetic oligonucleotide; modified_base 1: mod_base = OTHER; note = 2'-O-Methyl-adenosine phosphorothioate; modified_base
notes: as for B1
B5: GA083: PCSK9 gRNA for ABE8.8 splice site editing, Human/Cyno (nucleic acid)
guide: UAAGGCCCAAGGGGGCAAGCGTTTTAGAGCTAGAAATAGCAAGTTAAAATAAGGCTAGTCCGTTATCAACTTGAAAAAGTGGCACCGAGTCGGTGCTTTT
modifications: 2'-O-methyl at 1, 2, other sugars and backbone not given here; further chemistry not fully specified
notes: as for B1
B6: GA075: PCSK9 gRNA for ABE8.8 splice site editing, Human/Cyno (nucleic acid)
guide: TTGGAAAGACGGAGGCAGCCGTTTTAGAGCTAGAAATAGCAAGTTAAAATAAGGCTAGTCCGTTATCAACTTGAAAAAGTGGCACCGAGTCGGTGCTTTT
modifications: listed as RNA; modified_base 1: mod_base = OTHER; note = 2'-O-Methyl-uridine phosphorothioate; modified_base 2: mod_base = OTHER; modified_base
notes: as for B1
B7: GA391 (nucleic acid)
guide: mC*mC*rGrCrArCrCrUrUrGrGrCrGrCrArGrCrGrGmGrUrUrUrUrArGmAmGmCmUmArGmAmAmAmUmAmGmCmAmArGrUrUmArAmArAmUrAmAmGmGmCmUmArGrUmCmCrGrUrUrAmUmCrArAmCmUmUrGmAmAmAmAmAmGmUmGrGmCmAmCmCmGmAmGmUmCmGmGmUmGmCmU*mU*mU*mU
B8: GA082: PCSK9 gRNA for ABE8.8 splice site editing, Human/Cyno (nucleic acid)
guide: CTTACCTGCCCCATGGGTGCGTTTTAGAGCTAGAAATAGCAAGTTAAAATAAGGCTAGTCCGTTATCAACTTGAAAAAGTGGCACCGAGTCGGTGCTTTT
modifications: listed as RNA; modified_base 1: mod_base = OTHER; note = 2'-O-Methyl-cytidine phosphorothioate; modified_base 2: mod_base = OTHER; note = 2'-O-Methyl-uridine phosphorothioate; modified_bas
notes: as for B1
B9: GA086: PCSK9 gRNA for ABE8.8 splice site editing, Human/Cyno (nucleic acid)
guide: B8 guide with C1T, T3C, C10T, A13T, T14G, G15A, T18G
modifications: listed as RNA; modified_base 1: mod_base = OTHER; note = 2'-O-Methyl-uridine phosphorothioate; modified_base 2: mod_base = OTHER; modified_base
notes: as for B1
B10: GA076: PCSK9 gRNA for ABE8.8 splice site editing, Human/Cyno (nucleic acid)
guide: GAAAGACGGAGGCAGCCTGGGTTTTAGAGCTAGAAATAGCAAGTTAAAATAAGGCTAGTCCGTTATCAACTTGAAAAAGTGGCACCGAGTCGGTGCTTTT
modifications: 2'-O-methyl at 1, 2, other sugars, backbone and T or U not given here; further chemistry not fully specified
notes: as for B1
B11: GA085: PCSK9 gRNA for ABE8.8 splice site editing, Human/Cyno (nucleic acid)
guide: GCCTCTTCACCTGCTCCTGAGTTTTAGAGCTAGAAATAGCAAGTTAAAATAAGGCTAGTCCGTTATCAACTTGAAAAAGTGGCACCGAGTCGGTGCTTTT
modifications: listed as RNA; modified_base 1: mod_base = OTHER; note = 2'-O-Methyl-guanosine phosphorothioate; modified_base 2: mod_base = OTHER; note = 2'-O-Methyl-cytidine phosphorothioate; modified_b
notes: as for B1

System: PCSK9 gene splice site
Type: cell-based, human
Conditions: for Editing % at Position 6: Human Primary Hepatocytes, gRNA co-transfected with ABE8.8 mRNA 1:1 by weight
Procedure: PCSK9 gRNAs were co-transfected with an equivalent amount of in vitro transcribed ABE8.8 mRNA MA002 (1:1 ratio by weight) into primary hepatocytes and processed as described in detailed methods. In one set of experiments, extracted genomic DNA was analyzed for base editing of the target splice site with next-generation sequencing of PCR amplicons generated around the target sites. Samples were prepared using the Nextera XT DNA library preparation kit (Illumina) according to the manufacturer's protocol. Briefly, two rounds of PCR were performed first to amplify the region of interest and second to add DNA sequences required for next generation sequencing and sample identification to the initial product. The final amplicon was sequenced on the Illumina MiSeq instrument according to the manufacturer's protocol.
Similarly, three gRNAs (GA098, GA099, GA100) were synthesized matching the 5′-[…]-3′ (SEQ ID NO: 15) (GA091) human protospacer sequence, as well as four gRNAs (GA067/GA101, GA102, GA103, GA347) matching the 5′-[…]-3′ (SEQ ID NO: 14) (GA067) cynomolgus protospacer sequence, but with more extensive chemical modifications of various kinds (Table 1). GA066 and GA095 contain the same chemical composition and modification pattern, as do GA067 and GA101 with one another. […] Each of the gRNAs described in Table 8, with an equivalent amount of in vitro transcribed ABE8.8 mRNA MA002 (1:1 ratio by weight), were co-transfected into primary human hepatocytes and primary cynomolgus hepatocytes via MessengerMax reagent, using various dilutions to assess for editing activity at different concentrations of test article. Three days after transfection, genomic DNA was harvested from the hepatocytes, and then assessed for base editing of the target splice site with next-generation sequencing.
Modifications and/or truncations to either the spacer or tracr portion of the gRNA was assessed by alteration of the GA066 spacer (5′-[…]-3′ (SEQ ID NO: 13)) (Table 12). […] Each of the gRNAs with an equivalent amount of in vitro transcribed ABE8.8 mRNA (1:1 ratio by weight) were co-transfected into primary human hepatocytes and primary cynomolgus hepatocytes and processed as described in detailed methods. […]

Molecule	Human Primary Hepatocytes-splice site editing % 1250 ng/mL [%]	Human Primary Hepatocytes-splice site editing % 2500 ng/mL [%]	Human Primary Hepatocytes-splice site editing % 5000 ng/mL [%]	other results
B1	5.4	14.1	18.1	
B2	4.9	7.6	8.6	
B3	0.3	0.5	0.4	
B4	6.5	10.0	12.6	
B5	0.2	0.2	0.2	
B6	1.8	3.1	5.5	
B7				Editing % at Position 6 (312.5 ng/mL, rep1): 16.86%; Editing % at Position 6 (312.5 ng/mL, rep2): 15.78%; Editing % at Position 6 (625 ng/mL, rep1): 27.12%; Editing % at Position 6 (625 ng/mL, rep2): 18.67%; Editing % at Position 6 (1250 ng/mL, rep1): 25.43%; Editing % at Position 6 (1250 ng/mL, rep2): 27.3%; Editing % at Position 6 (2500 ng/mL, rep1): 25.58%; Editing % at Position 6 (2500 ng/mL, rep2): 30.06%
B8	5.6	9.6	9.8	
B9	2.9	4.9	5.7	
B10	1.6	3.9	4.9	
B11	1.2	1.8	2.4	
